Residue numbers refer to the chain shown, from its start.
T1: human CX3CR1 receptor (human, UniProt P49238 1-355)
T1 construct: Expressed on stably transfected HEK or CHO cells, or endogenous on human PBMC (CD8+ T cells, NK cells); also called HEK-CX3CR1 cells; CHO-CX3CR1 cells
T1 sequence: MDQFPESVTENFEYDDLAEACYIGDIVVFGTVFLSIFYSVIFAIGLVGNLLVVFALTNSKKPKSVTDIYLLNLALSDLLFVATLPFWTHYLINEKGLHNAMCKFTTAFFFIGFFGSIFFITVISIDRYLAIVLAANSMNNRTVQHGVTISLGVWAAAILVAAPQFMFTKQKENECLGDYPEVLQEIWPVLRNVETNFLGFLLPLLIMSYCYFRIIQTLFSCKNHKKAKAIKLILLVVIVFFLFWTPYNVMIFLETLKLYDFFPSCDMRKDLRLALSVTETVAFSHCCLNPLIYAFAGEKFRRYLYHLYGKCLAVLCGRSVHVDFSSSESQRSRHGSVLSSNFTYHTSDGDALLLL

B1: CCL5-expressing phage (other, UniProt P13501 24-91, looked up, not shown: large carriers)
chain: SPYSSDTTPCCFAYIARPLPRAHIKEYFYTSGKCSNPAVVFVTRKNRQVCANPEKKWVREYINSLEMS
notes: Control phage
B2: phage-F1 (phage clone ILDNGVS) (other, not shown: large carriers)
chain: ILDNGVSKCNITCSKMTSKIPVALLIHYQQNQASCGKRAIILETRQHRLFCADPKEQWVKDAMQHLDRQAAALTRNG
B3: CX3CL1-phage (human CX3CL1 chemokine domain displayed on phage) (other, not shown: large carriers)
chain: QHHGVTKCNITCSKMTSKIPVALLIHYQQNQASCGKRAIILETRQHRLFCADPKEQWVKDAMQHLDRQAAALTRNG
notes: also called phage-chemokine
B4: F1 (CX3CL1 analogue, soluble chemokine domain with N-terminal sequence ILDNGVS) (ligand)
chain: B2 chain
notes: also called F1 analogue; soluble F1
B5: CX3CL1 (native human soluble chemokine) (ligand)
chain: B3 chain
notes: The tracer is iodinated CX3CL1 from Amersham; also called fractalkine; FKN
B6: phage-displayed CX3CL1 mutant with N-terminal sequence ILDNGVA (other, not shown: large carriers)
chain: B2 chain with S7A
notes: Selected phage clone (antagonist selection); not tested singly
B7: phage-displayed CX3CL1 mutant with N-terminal sequence SLIPVVP (other, not shown: large carriers)
chain: B2 chain with I1S, D3I, N4P, G5V, S7P
notes: as for B6
B8: phage-displayed CX3CL1 mutant with N-terminal sequence ILDLGLT (other, not shown: large carriers)
chain: B2 chain with N4L, V6L, S7T
notes: as for B6
B9: phage-displayed CX3CL1 mutant with N-terminal sequence TLPQGLA (other, not shown: large carriers)
chain: B2 chain with I1T, D3P, N4Q, V6L, S7A
notes: as for B6
B10: phage-displayed CX3CL1 mutant with N-terminal sequence TLAQGLP (other, not shown: large carriers)
chain: B2 chain with I1T, D3A, N4Q, V6L, S7P
notes: as for B6
B11: phage-displayed CX3CL1 mutant with N-terminal sequence ILDLGLS (other, not shown: large carriers)
chain: B2 chain with N4L, V6L
notes: as for B6
B12: phage-displayed CX3CL1 mutant with N-terminal sequence QPLFAVA (other, not shown: large carriers)
chain: B2 chain with I1Q, L2P, D3L, N4F, G5A, S7A
notes: as for B6
B13: phage-displayed CX3CL1 mutant with N-terminal sequence SLDHGLS (other, not shown: large carriers)
chain: B2 chain with I1S, N4H, V6L
notes: as for B6
B14: phage-displayed CX3CL1 mutant with N-terminal sequence WLSQGLA (other, not shown: large carriers)
chain: B2 chain with I1W, D3S, N4Q, V6L, S7A
notes: as for B6
B15: phage-displayed CX3CL1 mutant with N-terminal sequence QRDSVLA (other, not shown: large carriers)
chain: B2 chain with I1Q, L2R, N4S, G5V, V6L, S7A
notes: as for B6
B16: phage-displayed CX3CL1 mutant with N-terminal sequence ILGRDVA (other, not shown: large carriers)
chain: B2 chain with D3G, N4R, G5D, S7A
notes: as for B6
B17: phage-displayed CX3CL1 mutant with N-terminal sequence ILDGGVS (other, not shown: large carriers)
chain: B2 chain with N4G
notes: as for B6
B18: phage-displayed CX3CL1 mutant with N-terminal sequence FLQSDVA (other, not shown: large carriers)
chain: B2 chain with I1F, D3Q, N4S, G5D, S7A
notes: as for B6
B19: phage-displayed CX3CL1 mutant with N-terminal sequence QLFALS (other, not shown: large carriers)
chain: B3 chain with H2L, H3F, G4A, V5L, T6S
notes: as for B6
B20: phage-displayed CX3CL1 mutant with N-terminal sequence QSLVLP (other, not shown: large carriers)
chain: B3 chain with H2S, H3L, G4V, V5L, T6P
notes: as for B6
B21: phage-displayed CX3CL1 mutant with N-terminal sequence VQSVLS (other, not shown: large carriers)
chain: B3 chain with Q1V, H2Q, H3S, G4V, V5L, T6S
notes: as for B6
B22: F2-Ig (F2 fused to a domain of an immunoglobulin) (Fc fusion)
chain: QPQGVSKCNITCSKMTSKIPVALLIHYQQNQASCGKRAIILETRQHRLFCADPKEQWVKDAMQHLDRQAAALTRNGAAAHPRGPTIKPCPPCKCPAPNLEGGPSVFIFPPKIKDVLMISLSPIVTCVVVDVSEDDPDVQISWFVNNVEVHTAQTQTHREDYDSTLRVVSALPIQHQDWMSGKAFACAVNNKDLPAPIGRTISKPKGSVRAPQVYVLPPPEEEMTKKQVTLTCMVTDFMPEDIYVEWTNNGKTELNYKNTEPVLDSDGSYFMYSKLRVEKKNWVERNSYSCSVVHEGLHNHHTTKSFSRPPGK
B23: CX3CL1-Ig (CX3CL1 chemokine domain fused to murine Fc) (Fc fusion)
chain: QHHGVTKCNITCSKMTSKIPVALLIHYQQNQASCGKRAIILETRQHRLFCADPKEQWVKDAMQHLDRQAAALTRNGEPRGPTIKPCPPCKCPAPNLEGGPSVFIFPPKIKDVLMISLSPIVTCVVVDVSEDDPDVQISWFVNNVEVHTAQTQTHREDYNSTLRVVSALPIQHQDWMSGKAFACAVNNKDLPAPIERTISKPKGSVRAPQVYVLPPPEEEMTKKQVTLTCMVTDFMPEDIYVEWTNNGKTELNYKNTEPVLDSDGSYFMYSKLRVEKKNWVERNSYSCSVVHEGLHNHHTTKSFSRTPGK
notes: domain: Fcγ2a fragment; also called FKN-Ig
B24: F2 (CX3CL1 analogue with N-terminal sequence QPQGVS) (ligand)
chain: B3 chain with H2P, H3Q, T6S
notes: Produced by chemical synthesis
B25: phage-displayed CX3CL1 mutant with N-terminal sequence QVQGVT (other, not shown: large carriers)
chain: B3 chain with H2V, H3Q
notes: Selected phage clone (agonist selection); not tested singly
B26: phage-displayed CX3CL1 mutant with N-terminal sequence QSPGMS (other, not shown: large carriers)
chain: B3 chain with H2S, H3P, V5M, T6S
notes: as for B25

Target: T1, human CX3CR1 receptor
Assay: flow cytometry of phage on cells

Row | Binder | binding result
1 | B1 | no binding

Target: T2, CCR5 (on HEK-CCR5 cells) (UniProt P51681 1-352, limits assumed)
T2 construct: whole, on cells; also called CCR5-expressing cells
T2 sequence (P51681 whole entry): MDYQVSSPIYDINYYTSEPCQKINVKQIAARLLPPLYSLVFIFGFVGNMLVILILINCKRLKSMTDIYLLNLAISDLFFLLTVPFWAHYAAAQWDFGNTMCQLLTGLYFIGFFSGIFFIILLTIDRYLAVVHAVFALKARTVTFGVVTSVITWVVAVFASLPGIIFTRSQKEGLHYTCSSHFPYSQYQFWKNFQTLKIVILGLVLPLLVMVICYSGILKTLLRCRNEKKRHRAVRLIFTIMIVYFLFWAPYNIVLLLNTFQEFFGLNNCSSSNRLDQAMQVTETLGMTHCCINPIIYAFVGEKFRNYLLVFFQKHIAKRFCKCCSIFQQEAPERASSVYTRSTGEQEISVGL
Assay: flow cytometry of phage on cells

Row | Binder | binding result
2 | B2 | no binding
3 | B3 | no binding

Target: T1, human CX3CR1 receptor
Assay: competitive radioligand binding, HEK-CX3CR1 cells, [125I]-CX3CL1 tracer
Protocol: (§1) Assays were performed as previously described by Moatti et al. (2001, Blood 97, 1925-8). Competitive binding to HEK-CX3CR1 and CHO-CX3CR1 cells was performed with 50 pM [¹²⁵I]-CX3CL1 (Amersham General Electric, Saclay, France) plus variable amounts of unlabeled ligand. Each concentration was assayed in duplicate. After 2 h at 37° C., cells were washed and radioactivity in the cell pellet was quantified with a gamma counter (LKB Wallac, Saint Quentin en Yvelines, France).
CX3CL1 in a competition binding, with HEK-CX3CR1 cells and [¹²⁵I]-CX3CL1 as a tracer. The F1 analogue interacted with CX3CR1, although with a lower affinity than CX3CL1. […] A similar difference in affinity was apparent when F1 and CX3CL1 were tested on CHO-CX3CR1 cells, and when the affinity of CX3CL1-Ig was compared to that of F1-Ig.

Row | Binder | IC50 [nM] | Log IC50
4 | B4 | 1.9 | -8.73
5 | B5 | 0.16 | -9.79

Target: T1, human CX3CR1 receptor
Assay: phage display selection on HEK-CX3CR1 cells, elution with soluble CX3CL1
Protocol: Phage particles are represented as cylinders (encapsulated phage genome) with multiple heads (pIII-CX3CL1 mutant fusion). […] (3) Stringent washing was used to remove nonspecifically bound phage. (4) An excess of soluble CX3CL1 (sCX3CL1) was added to remove surface-associated phage. Eluted phages were allowed to infect E. coli, and stocks of selected phages were prepared to be used in a new round of selection (steps 1 to 4).
A phage library of CX3CL1 mutants (10¹⁰ CFU) was directly incubated with 5.10⁶ HEK-CX3CR1 or HEK-CCR5 cells growing in 25 cm² tissue culture flasks (Becton Dickinson, Le Pont de Claix, France) at 37° C. at 5% CO₂ in 5 ml of supplemented RPMI-1640 medium. After 1 h, cells were washed 10 times at room temperature with 10 ml of phosphate-buffered saline (PBS) and then scraped from the plate into 10 ml of PBS-0.5% BSA. Cells were then pelleted and incubated for 20 min on ice in elution buffer consisting of an excess of soluble CX3CL1 (10 μM in 100 μl PBS-BSA). Cells were centrifuged (1000×g for 5 min) and supernatant was mixed with log-phase E. coli TG1 for production and purification of stock phage to be used in further rounds of selection, as described by Hartley et al. (2003, J Virol 77, 6637-44).

Row | Binder | binding result
6 | B6 | binds
7 | B7 | binds
8 | B8 | binds
9 | B9 | binds
10 | B10 | binds
11 | B11 | binds
12 | B12 | binds
13 | B13 | binds
14 | B14 | binds
15 | B15 | binds
16 | B16 | binds
17 | B17 | binds
18 | B18 | binds
19 | B19 | binds
20 | B20 | binds
21 | B21 | binds

Target: T1, human CX3CR1 receptor
Assay: competitive radioligand binding, CX3CR1-expressing CHO cells, 125I-FKN tracer
Protocol: as §1
(§2) Assays for determining the competitive radioligand binding of F2 and of F2-Ig to CX3CR1 were carried out as described in Example 1.8.

Row | Binder | IC50 [nM]
22 | B22 | 0.39
23 | B23 | 1.47

Target: T1, human CX3CR1 receptor
Assay: competitive radioligand binding, CX3CR1-expressing HEK cells, 125I-FKN tracer
Protocol: as §1, §2

Row | Binder | IC50 [nM]
24 | B5 | 0.58
25 | B24 | 0.05

Target: T1, human CX3CR1 receptor
Assay: phage display selection on HEK-CX3CR1 cells, recovery of endocytosed phages

Row | Binder | binding result
26 | B25 | binds
27 | B26 | binds
